Test results reported in the supplement of paper PMC10567573.
± gives the standard deviation.

Experiment: protein stability index of a GFP-peptide fusion (GPS, HEK-293T) (PSI 1-6); higher = more stable
Conditions: c terminus: a fixed tail appended
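Also: 24-mer peptide tiles fused after GFP, lentivirally expressed, FACS-sorted into six equal bins by GFP/DsRed ratio, decoded by Illumina sequencing, PSI is the read-weighted mean bin number.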

Row | Sequence | protein stability index (treatment: DMSO) | protein stability index (treatment: MLN4924 1 uM, 8 h)
1 | AAAHWYGGAEMRTQHWPIRLDGQQ [MYORG] | 2.86 ± 0.15 | 2.79 ± 0.14
2 | AAATTTTTTSAATATTAPPALDIF [SNAP91] | 4.45 ± 0.24 | 4.61 ± 0.16
3 | AACFDGRLDIVKYLVENNANISIA [FEM1B] | 2.38 ± 0.38 | 2.21 ± 0.38
4 | AAGRVCRPPGPAGTEQSRGLGHGS [CPOX] | 4.44 ± 0.25 | 4.53 ± 0.4
5 | AAKLLNVDPDNVVLCLLAADEDDD [GADD45A] | 3.68 ± 0.16 | 3.94 ± 0.27
6 | AALEEESRQRQSRMEKGEPYMSIQ [SMARCE1] | 4.88 ± 0.34 | 4.88 ± 0.22
7 | AAMLSMVKYNSCADRPFSAPWWFW [POMT2] | 2.31 ± 0.25 | 2.1 ± 0.31
8 | AAPGKQPGRGHTHAAQGGPLLCPG [ELOA2] | 4.09 ± 0.31 | 4.31 ± 0.26
9 | AASTAAALENLQVEASCSVCLEYL [TRIM39] | 2.74 ± 0.37 | 2.81 ± 0.48
10 | AATTSKEQEPIGTDLDAVRTPEPL [MYBL2] | 5.46 ± 0.3 | 5.41 ± 0.25
11 | ACGDFFTACLTDRGIIMTFGSGSN [NEK8] | 2.66 ± 0.83 | 2.78 ± 0.64
12 | ACSAPGGLVPSEKPPMMPQAQPAI [C2CD2L] | 4.24 ± 0.15 | 4.18 ± 0.19
13 | ADFGLARIYSYQMALTPVVVTLWY [CDK4] | 3.52 ± 0.99 | 2.78 ± 0.81
14 | ADLELSLPECLEYEEEFDYETESE [GNAS] | 5.41 ± 0.24 | 5.47 ± 0.16
15 | ADVLLQAGADLEHESEGGRTPLMK [ANKRD17] | 5.17 ± 0.34 | 5.29 ± 0.15
16 | AEDHLDGCCKRRYLQKIEEFAEMV [KCNG1] | 3.06 ± 0.14 | 2.96 ± 0.1
17 | AEGHKASFCLEDTECEGDIQKNYE [LOXL2] | 5.47 ± 0.4 | 5.33 ± 0.33
18 | AELKEAVEEPSSKDVMEKREDSKE [CHGA] | 5.67 ± 0.083 | 5.61 ± 0.17
19 | AFGWFRCSSCQRSWASAQVQILCH [RTP4] | 2.45 ± 0.37 | 2.68 ± 0.54
20 | AFKAAALIQRWYRRYVARLEMRRR [PPEF2] | 3.55 ± 0.57 | 4.15 ± 0.59
21 | AFLLLPLPDELGSQLPQVLHVSLG [MOSPD3] | 2.96 ± 0.76 | 2.73 ± 0.49
22 | AFLRRVKTCNPPDAGPMVVHCSAG [PTPRD] | 2.15 ± 0.068 | 2.18 ± 0.3
23 | AGEGAEALARNLLVDGETGESFPA [NFE2L1] | 5.37 ± 0.09 | 5.41 ± 0.21

Row | Sequence | protein stability index (treatment: DMSO) | protein stability index (treatment: MLN4924 1 uM, 8 h)
24 | AGKQRMKEKEQENERKVAQLAEEN [DDIT3] | 5.29 ± 0.41 | 5.49 ± 0.43
25 | AGPELDEMLREVDLNGDGTVDFDE [CABP4] | 5.67 ± 0.23 | 5.36 ± 0.11
26 | AGSTDDRIVVPQRGRSTRVPVASV [SPNS1] | 4.22 ± 0.077 | 4.39 ± 0.45
27 | AGWTLATLGEQGLPHQSHRQRSSL [SCNN1D] | 3.62 ± 0.21 | 3.75 ± 0.21
28 | AIDQYRVCQEVLERSRDVVDEVSV [RHOBTB1] | 4.61 ± 0.21 | 4.32 ± 0.15
29 | AIRPENRAPGAGLGQDRQVPLWGQ [EMD] | 3.5 ± 0.21 | 3.45 ± 0.18
30 | AKDPGKGELPNHPKPAGGAIPTKK [FBF1] | 5.47 ± 0.34 | 5.65 ± 0.15
31 | AKINIVYQELNYRSVEEAPVYSVP [SCNN1D] | 2.17 ± 0.14 | 2.15 ± 0.45
32 | AKKIKLTAEAEELKPFFMKEVGSH [SOAT1] | 3.5 ± 0.34 | 3.59 ± 0.38
33 | ALEEPEKMGLQERSETFLEVWGNA [DNAAF3] | 4.35 ± 0.22 | 4.32 ± 0.42
34 | ALILHQRIHSGKKPYACDECAKAF [ZNF396] | 2.11 ± 0.26 | 2.84 ± 0.45
35 | ALKEDFGFKHRLWVYSGRRGVHCW [PRIM1] | 2.28 ± 0.65 | 2.48 ± 0.61
36 | ALQPSPSIRLPLDAPLPGSKAKPK [TBC1D10A] | 4.19 ± 0.21 | 4.32 ± 0.34
37 | ANGGAICAVTFFTILLSYGVILHS [OR4A15] | 2.79 ± 0.25 | 2.84 ± 0.31
38 | ANRWSFDGIDRWIKEIDEHAPGVP [RAB40B] | 3.92 ± 0.076 | 3.92 ± 0.12
39 | ANSSSEAPFPNVSTSLLTSAGNRT [ADAMTSL2] | 4.52 ± 0.36 | 4.49 ± 0.29
40 | APGLYNHLPWQYHAGQGGLFYSAE [CCDC3] | 2.69 ± 0.084 | 3.25 ± 1.1
41 | APRPGPPAGTPPPTARHFQEHPRQ [MOSPD3] | 4.99 ± 0.36 | 4.86 ± 0.35
42 | APSKEEMLSWILRINLVAAIFSAP [PSD2] | 2.71 ± 0.32 | 3.03 ± 0.62
43 | AQQLLREFEEATGEAGWGAGEGRL [FOXJ1] | 4.74 ± 0.16 | 4.66 ± 0.34
44 | AQVPPAAPHHHHHHSHSGPEISRI [PLK2] | 4.09 ± 0.073 | 4.1 ± 0.13
45 | ARALLEDDSDTQQVVVLVRDNGDP [PCDHGC5] | 4.82 ± 0.1 | 4.79 ± 0.46
46 | AREGLAAPPRRLRSRKVSCPLTRS [FCHO1] | 3.93 ± 0.12 | 4.13 ± 0.35

Row | Sequence | protein stability index (treatment: DMSO) | protein stability index (treatment: MLN4924 1 uM, 8 h)
47 | ARICRLLKHPNIVRLHDSISEEGH [CAMK2A] | 2.85 ± 0.17 | 2.84 ± 0.33
48 | ARKLTAQRRASTVSSVTQVEVDEN [NET1] | 5.15 ± 0.39 | 5.14 ± 0.33
49 | ARKRKNRRLKQAKEEAQAEIEQYR [ATP6V1G1] | 5.03 ± 0.38 | 5.13 ± 0.32
50 | ARRRKKILFYCHFPDLLLTKRDSF [ALG2] | 2.4 ± 0.56 | 2.04 ± 0.55
51 | ARYIDTHNRVSKEDEDIYKLRHDL [PLK2] | 3.75 ± 0.3 | 3.8 ± 0.13
52 | ASDIMEPNLTYVYPHTRIQSLVSI [CLCN6] | 2.38 ± 0.49 | 2.34 ± 0.38
53 | ASGPINFTMFLNLFGEKLSGTDAE [MYL5] | 2.58 ± 0.28 | 2.6 ± 0.4
54 | ASKKTAQPWVEVVLALRNMKNLLF [MFSD9] | 2.75 ± 0.73 | 2.57 ± 0.39
55 | ASLHPSVSPGSPPPPLPNHKYNTT [PLAGL1] | 4.58 ± 0.14 | 4.586 ± 0.043
56 | ASLNIKTTVPEVEPPQDSHSRKTV [PRPH] | 5.21 ± 0.43 | 5.18 ± 0.21
57 | ASQCCGVHVISLHIWELSSIKNSL [PTGFR] | – | 2.31 ± 0.52
58 | ASRQKTSLGIELHCNVSNILHMNG [ZNF396] | 1.97 ± 0.23 | 2.12 ± 0.14
59 | ASWAKPHYEFNLSRMKFRGNGALS [LCOR] | 2.56 ± 0.19 | 2.71 ± 0.24
60 | ATFHVGGGPAQNAPHQQPPAPPSD [TFE3] | 4.86 ± 0.16 | 4.84 ± 0.26
61 | AVEGAARTTPSRREITGVQAQPGE [PALM] | 5.22 ± 0.36 | 5.31 ± 0.28
62 | AVMEFHVSEDFNKMNFIKTYPAHQ [WDFY1] | 1.99 ± 0.32 | 1.93 ± 0.28
63 | AVNRARRPLARPIKRGDILPPEKG [RHOBTB1] | 3.66 ± 0.23 | 3.77 ± 0.33
64 | AYEIMQTLHPDASANFHSLDDIYY [FUT8] | 2.85 ± 0.25 | 2.93 ± 0.37
65 | CATGLLGSAPFLFLSLACARGSIV [SPNS1] | 3.02 ± 0.21 | 2.88 ± 0.28
66 | CFFRDHSYQEEAAMELKVEDPFYW [MOG] | 3.04 ± 0.23 | 3.02 ± 0.24
67 | CGPAEERVLLTGLHAVADIHCENC [YPEL3] | 3.25 ± 0.33 | 3.58 ± 0.67
68 | CKCGECTAPRTLPSCLACNRQCLC [SPRY1] | 4.05 ± 0.2 | 4.04 ± 0.14
69 | CKNGETLLGAVNFFVSSINTLVTK [ARFIP2] | 2.72 ± 0.75 | 2.64 ± 0.88

Row | Sequence | protein stability index (treatment: DMSO) | protein stability index (treatment: MLN4924 1 uM, 8 h)
70 | CLEPLEQKLQEITRCKSSEEKKPG [TRIM39] | 4.89 ± 0.23 | 5.08 ± 0.18
71 | CPGKGAWSIPWKWLFGATAVALGG [FKBP8] | 2.42 ± 0.3 | 2.37 ± 0.25
72 | CRMSIRRVMPTQEVQELPIPSKLL [WSB1] | 2.42 ± 0.2 | 2.52 ± 0.2
73 | CSFSIERILGLDQKKDCVPLMKPH [HESX1] | 2.33 ± 0.19 | 2.43 ± 0.23
74 | CSPTAHDRECKLPPPSAPASEYCP [WDR88] | 4.55 ± 0.088 | 4.584 ± 0.039
75 | CSSARHPAWGHCFYRLYQDLETHR [SCNN1D] | 2.15 ± 0.17 | 2 ± 0.16
76 | CTLEQDHFKKQTIYRFLKLHPRGK [FEM1C] | 2.43 ± 0.27 | 2.65 ± 0.37
77 | CYNGQDAVVNELIDYGANVNQPNN [ANKRD44] | 4.16 ± 0.088 | 4.24 ± 0.21
78 | DAEFLCVFCREGPTHQAHTVGFLD [TRIM15] | 2.31 ± 0.27 | 2.34 ± 0.33
79 | DAETPPRFTRTPVDQTGVSGGVAS [PTPRD] | 5 ± 0.31 | 4.638 ± 0.016
80 | DAVFMKDGFFYFFHGTRQYKFDPK [MMP1] | 2.25 ± 0.33 | 2.1 ± 0.13
81 | DDALEDFKKVLDLNPGFQDATLSL [TTC32] | 3.73 ± 0.32 | 3.85 ± 0.32
82 | DDFFRHESGEHFRSLLGYDPQILQ [RAD54B] | 3.44 ± 0.22 | 3.29 ± 0.26
83 | DEIYRVLRYVNSTRAPQRAHEVLQ [FBXO28] | 2.43 ± 0.28 | 2.44 ± 0.33
84 | DELAHRCSSFMAPPVTDLGELRRR [CPOX] | 3.92 ± 0.11 | 4.04 ± 0.3
85 | DEQLNEFHCLWDDSFPEGPERLHA [HDAC6] | 4.55 ± 0.3 | 4.46 ± 0.35
86 | DFITLYQMASQSSASHYKLQVIKA [M1AP] | 2.63 ± 0.3 | 2.44 ± 0.43
87 | DGAGRTWQDSDTVKLLVDLELSYG [TOR1AIP2] | 2.37 ± 0.48 | 2.79 ± 0.43
88 | DGPCHKRRASICCTQLGSLSALKH [SCARA5] | 3.79 ± 0.11 | 3.65 ± 0.076
89 | DHLENVSKLVESGIQFMDEPEMAV [TRIM55] | 4.54 ± 0.45 | 4.75 ± 0.41
90 | DIKRGIPNYEFKLGKITFIRNSRP [UFD1] | 2.27 ± 0.17 | 2.34 ± 0.21
